Measurements reported in US20250230239A1.

Target: recombinant his-tagged and biotinylated CD3ε protein (AcroBiosystems, CDE-H8223), human (human) (UniProt P07766)
Assay: BLI (Octet RED96), biotinylated his-tagged CD3ε on SSA biosensor, bispecific as analyte 200 to 3.125 nM

Sequence of recombinant his-tagged and biotinylated CD3ε protein (AcroBiosystems, CDE-H8223), human (human) (P07766 23-126 limits assumed): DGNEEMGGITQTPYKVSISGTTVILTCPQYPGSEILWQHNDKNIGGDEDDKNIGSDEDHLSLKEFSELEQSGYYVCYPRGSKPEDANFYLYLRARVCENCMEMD

Row | Kd [nM] | Binder
1 | 1.66 to 5.64 | monovalent bispecific antibody comprising anti-CD3 scFv v619_HLh (SEQ ID NO: 28) and a Her2-binding domain (bispecific antibody, part only; not given: Her2 arm and Fc, not shown: another chain or arm of the molecule; a dimerising Fc or GST; small tags and cut ends) scFv: EVQLVESGGGLVQPGGSLKLSCAASGFTFSTYAMNWVRQASGKGLEWVGRIRSKYNNYATYYADSVKDRFTISRDDSKNTAYLQMNSLKTEDTAVYYCVRHGNFGNSYVSWWAYWGQGTLVTVSSGGGGSGGGGSGGGGSQTVVTQEPSLTVSPGGTVTLTCGSSTGAVTTSNYVNWVQQKPGQAPRGLIGGTNKRAPGTPARFSGSLIGGKAALTLSGAQPEDEAEYYCVLWYSNRWVFGGGTKLTVL
2 | 11 | monovalent bispecific antibody comprising anti-CD3 scFv v619-HLh-CC4 (SEQ ID NO: 32) and a Her2-binding domain (bispecific antibody, part only; not given: Her2 arm and Fc, not shown: another chain or arm of the molecule; a dimerising Fc or GST; small tags and cut ends, Engineered VH-VL disulfide (Cys at VH 117 and VL 44 of the domains) within the scFv) scFv: EVQLVESGGGLVQPGGSLKLSCAASGFTFSTYAMNWVRQASGKGLEWVGRIRSKYNNYATYYADSVKDRFTISRDDSKNTAYLQMNSLKTEDTAVYYCVRHGNFGNSYVSWFAYWGCGTLVTVSSGGGGSGGGGSGGGGSQTVVTQEPSLTVSPGGTVTLTCGSSTGAVTTSNYVNWVQQKPGCAPRGLIGGTNKRAPGTPARFSGSLIGGKAALTLSGAQPEDEAEYYCVLWYSNRWVFGGGTKLTVL
